What was measured:
[1] = target: dansylated Pax_(112–123) peptide (Dans-GEEEHV-pY-SFPNK); assay: stopped-flow fluorescence displacement kinetics (FRET); complex of 2 µM H60A mutant and 20 µM dansyl-Pax112-123 mixed with excess non-dansylated Pax112-123 (40 μM); 283 K; pH 6.8
[2] = target: dansylated Pax_(112–123) peptide (Dans-GEEEHV-pY-SFPNK); assay: stopped-flow fluorescence displacement kinetics (FRET); complex of 2 µM H60A mutant and 20 µM dansyl-Pax112-123 mixed with excess non-dansylated Pax112-123 (40 μM); 283 K; pH 7.5
[3] = target: dansylated Pax_(112–123) peptide (Dans-GEEEHV-pY-SFPNK); assay: stopped-flow fluorescence displacement kinetics (FRET); complex of 2 µM H60A mutant and 20 µM dansyl-Pax112-123 mixed with excess non-dansylated Pax112-123 (40 μM); 283 K; pH 5.5
His60 = His60 (UniProt position 60, NSRVSHYIINS); assay: kinetics (stopped-flow fluorescence binding and displacement); conditions: 283 K; 0.5 M NaCl plus 50 mM buffer; 50 mM sodium-acetate pH 5.0 and 5.5; 50 mM BisTRIS pH 6.0 and 6.8; 50 mM sodium-HEPES pH 7.5; 50 mM TrisHCl pH 8.0, 8.5 and 9.0; Binding reaction with dansyl-Pax112-123 phosphopeptide. The pKa comes from both association and dissociation rate constants, so no free or bound state is specified.

koff [1] [s⁻¹] | koff [2] [s⁻¹] | koff [3] [s⁻¹] | Substance | pKa (His60)
152 | 237 | 212 | SH2 domain of Crkl protein (residues 1-111), H60A variant (from UniProt P46109 1-111) (domain or fragment) | –
– | – | – | Crk-like protein (Crkl) SH2 domain (Homo sapiens (inferred; not stated in the article)) | 7.1 ± 0.2
